Laboratory results reported in US20220332804A1 (CSL INNOVATION, published 2022).

Columns and labels:
Assay in all cases: SPR, antibody captured, C2 as analyte;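 further: biacore at 37 °C, anti-C2 mAbs held by immobilised goat anti-human IgG, C2 alanine or serine mutants injected, double-referenced sensorgrams fitted to a 1:1 kinetic or steady-state model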
human C2 I320A = target: T1, human C2 I320A (human, UniProt P06681 21-752)
T1 sequence: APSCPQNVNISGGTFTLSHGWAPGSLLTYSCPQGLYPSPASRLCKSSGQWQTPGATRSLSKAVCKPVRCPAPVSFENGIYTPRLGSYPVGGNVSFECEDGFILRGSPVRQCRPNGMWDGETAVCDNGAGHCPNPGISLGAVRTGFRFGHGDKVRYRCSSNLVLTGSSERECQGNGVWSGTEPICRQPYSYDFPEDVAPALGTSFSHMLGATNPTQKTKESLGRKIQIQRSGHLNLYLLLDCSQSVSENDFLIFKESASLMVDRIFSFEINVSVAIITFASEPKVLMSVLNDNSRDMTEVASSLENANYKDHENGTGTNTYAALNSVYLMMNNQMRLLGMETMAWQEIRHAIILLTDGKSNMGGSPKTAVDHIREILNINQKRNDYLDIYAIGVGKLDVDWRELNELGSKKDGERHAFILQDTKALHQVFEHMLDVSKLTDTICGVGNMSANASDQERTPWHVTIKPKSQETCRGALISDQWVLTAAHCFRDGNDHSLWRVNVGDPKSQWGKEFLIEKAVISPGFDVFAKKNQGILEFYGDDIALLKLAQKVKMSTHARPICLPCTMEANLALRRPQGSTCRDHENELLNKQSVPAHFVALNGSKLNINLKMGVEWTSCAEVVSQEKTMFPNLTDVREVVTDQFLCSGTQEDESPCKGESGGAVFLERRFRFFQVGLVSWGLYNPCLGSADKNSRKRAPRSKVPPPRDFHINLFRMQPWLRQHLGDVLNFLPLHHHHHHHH

human C2 S428A = target: T2, human C2 S428A (human, UniProt P06681 21-752)
T2 sequence: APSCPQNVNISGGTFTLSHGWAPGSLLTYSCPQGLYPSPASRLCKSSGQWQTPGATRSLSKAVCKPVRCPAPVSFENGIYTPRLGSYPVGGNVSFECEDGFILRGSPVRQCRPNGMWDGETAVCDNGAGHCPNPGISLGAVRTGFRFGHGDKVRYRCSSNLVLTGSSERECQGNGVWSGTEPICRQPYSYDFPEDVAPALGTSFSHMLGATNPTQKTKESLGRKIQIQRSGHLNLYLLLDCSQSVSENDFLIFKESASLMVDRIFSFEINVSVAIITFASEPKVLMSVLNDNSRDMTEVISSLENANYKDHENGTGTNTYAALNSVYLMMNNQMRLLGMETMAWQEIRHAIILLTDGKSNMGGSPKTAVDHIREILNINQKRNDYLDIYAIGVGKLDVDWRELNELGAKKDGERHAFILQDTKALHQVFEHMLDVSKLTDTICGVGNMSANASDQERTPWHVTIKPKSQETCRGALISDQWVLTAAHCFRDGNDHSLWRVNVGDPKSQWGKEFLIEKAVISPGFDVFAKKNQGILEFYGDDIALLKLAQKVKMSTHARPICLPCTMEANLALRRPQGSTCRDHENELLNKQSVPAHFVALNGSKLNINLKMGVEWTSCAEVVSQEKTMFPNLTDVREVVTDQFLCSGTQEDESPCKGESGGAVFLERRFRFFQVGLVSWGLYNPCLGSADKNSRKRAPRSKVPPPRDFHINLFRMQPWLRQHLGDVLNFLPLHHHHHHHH

human C2 I438A = target: T3, human C2 I438A (human, UniProt P06681 21-752)
T3 sequence: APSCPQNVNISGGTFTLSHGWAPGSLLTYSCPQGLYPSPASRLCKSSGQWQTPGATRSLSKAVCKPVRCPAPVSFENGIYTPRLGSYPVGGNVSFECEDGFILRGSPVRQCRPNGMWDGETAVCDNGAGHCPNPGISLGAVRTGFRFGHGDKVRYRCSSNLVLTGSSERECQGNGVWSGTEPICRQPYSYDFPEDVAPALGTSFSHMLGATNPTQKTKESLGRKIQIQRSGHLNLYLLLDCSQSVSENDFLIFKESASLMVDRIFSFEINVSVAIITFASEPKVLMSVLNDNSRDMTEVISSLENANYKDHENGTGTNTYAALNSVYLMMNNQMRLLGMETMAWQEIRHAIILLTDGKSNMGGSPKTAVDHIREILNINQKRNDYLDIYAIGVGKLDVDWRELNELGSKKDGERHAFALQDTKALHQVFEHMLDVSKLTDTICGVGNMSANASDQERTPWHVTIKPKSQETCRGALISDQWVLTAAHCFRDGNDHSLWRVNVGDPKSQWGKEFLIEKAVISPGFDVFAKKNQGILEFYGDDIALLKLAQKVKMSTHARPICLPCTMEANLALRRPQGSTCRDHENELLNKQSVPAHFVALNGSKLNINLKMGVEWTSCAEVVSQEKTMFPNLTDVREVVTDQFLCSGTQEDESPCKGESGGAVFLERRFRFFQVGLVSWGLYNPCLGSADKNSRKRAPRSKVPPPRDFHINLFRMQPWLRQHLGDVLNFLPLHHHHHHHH

human C2 H451A = target: T4, human C2 H451A (human, UniProt P06681 21-752)
T4 sequence: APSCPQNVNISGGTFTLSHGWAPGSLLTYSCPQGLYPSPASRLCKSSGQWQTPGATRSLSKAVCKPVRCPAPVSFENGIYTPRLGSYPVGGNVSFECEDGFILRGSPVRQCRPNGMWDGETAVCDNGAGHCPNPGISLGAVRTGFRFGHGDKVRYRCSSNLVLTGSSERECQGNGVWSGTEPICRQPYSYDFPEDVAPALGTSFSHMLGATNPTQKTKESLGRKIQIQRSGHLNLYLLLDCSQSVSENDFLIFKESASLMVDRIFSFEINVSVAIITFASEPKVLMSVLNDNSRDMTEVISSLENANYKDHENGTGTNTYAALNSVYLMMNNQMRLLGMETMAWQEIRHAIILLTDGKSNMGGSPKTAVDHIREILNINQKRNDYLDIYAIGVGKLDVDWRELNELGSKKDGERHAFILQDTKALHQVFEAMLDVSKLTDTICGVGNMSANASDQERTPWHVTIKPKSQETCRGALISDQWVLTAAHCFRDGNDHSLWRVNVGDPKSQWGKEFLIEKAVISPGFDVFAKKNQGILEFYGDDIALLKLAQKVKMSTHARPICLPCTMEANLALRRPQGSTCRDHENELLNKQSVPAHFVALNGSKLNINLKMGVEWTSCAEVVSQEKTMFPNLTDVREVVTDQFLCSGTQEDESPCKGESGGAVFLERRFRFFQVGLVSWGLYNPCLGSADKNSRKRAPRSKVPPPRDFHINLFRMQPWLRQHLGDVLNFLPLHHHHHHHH

B1: RF16-242 (antibody, human IgG4 S228P, lambda, V domains shown)
VH: EVQLLQSGAEVKKPGESLKISCKGSGYSFTSYWIGWVRQMPGKGLEWMGIIYPGDSDTRYSPSFQGQVTISADKSISTAYLQWSSLKASDTAMYYCARRGHYGDYFDYWGQGTLVTVSS
VL: SYELTQPPSVSVSPGQTARITCSGDALPKKYAYWYHQKSGQAPVLVIYEDRRRPSEIPERFSGSSSGTMATLTITGAQVEDEGVYFCYSRDRAGNQRVFGGGTQLTVLG
notes: pH-dependent anti-C2 antibody from a phage display library
Human C2 I320A
  Kd: 73.5 nM
Human C2 S428A
  Kd: 18.6 nM
Human C2 I438A
  Kd: 8.7 nM
Human C2 H451A
  Kd: 21.3 nM
